These results are taken from the supplement of paper PMC9112550, “Optimization of the antimicrobial peptide Bac7 by deep mutational scanning” (BMC Biology, 2022).

This data set has as its system Escherichia coli TOP10. In words: shrunken log2 fold change of peptide-encoding DNA abundance (4.5 h post-induction vs induction); higher = less antimicrobial activity (less host growth inhibition). As to conditions: time post-induction: 4.5 h; library: site-saturation at positions 5, 18, 19, 20.
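Further: peptides expressed intracellularly from a pBAD plasmid library in pooled LB shake-flask culture, induced with 0.3% L-arabinose, DNA abundance read by NGS, three biological replicates, DESeq2 with apeglm shrinkage.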

As for RRIRCRPPRLPRPRPRPAPTPRP, the “shrunken log2 fold change” value came to 0.591.

Turning to RRIRMRPPRLPRPRPRPLINPRP, the “shrunken log2 fold change” value was -0.231. For RRIRKRPPRLPRPRPRPWNPPRP the value was 0.159. Consider RRIRVRPPRLPRPRPRPQLWPRP, for which the “shrunken log2 fold change” value was 0.0627. With RRIRDRPPRLPRPRPRPQPHPRP the figure was 0.228; with RRIRFRPPRLPRPRPRPQFSPRP, -0.401.

With RRIRIRPPRLPRPRPRPHFMPRP, the “shrunken log2 fold change” value was -0.685. With RRIRKRPPRLPRPRPRPQTWPRP the figure was 0.134; with RRIRARPPRLPRPRPRPVPPPRP, 1.05.

Take RRIRRRPPRLPRPRPRPEMPPRP: the “shrunken log2 fold change” value worked out at 0.207. With RRIRQRPPRLPRPRPRPGQRPRP the figure was 0.0565; with RRIRNRPPRLPRPRPRPPCPPRP, 0.309. For the sequence RRIRERPPRLPRPRPRPWWWPRP, the “shrunken log2 fold change” value was 0.0554. On to RRIRARPPRLPRPRPRPHFCPRP, for which the “shrunken log2 fold change” value is -0.105. For RRIRKRPPRLPRPRPRPNFLPRP the value was -0.185; for RRIRCRPPRLPRPRPRPSQLPRP, -0.357. Regarding RRIRVRPPRLPRPRPRPVYKPRP, the “shrunken log2 fold change” value is -0.302. Regarding RRIRYRPPRLPRPRPRPWLLPRP, the “shrunken log2 fold change” value was -1.51. For RRIRQRPPRLPRPRPRPTKYPRP the value was -0.257; for RRIRQRPPRLPRPRPRPIWCPRP, -0.0171; for RRIRPRPPRLPRPRPRPSKRPRP, -0.00797. Consider RRIRFRPPRLPRPRPRPWSEPRP, for which the “shrunken log2 fold change” value was -0.173. With RRIRCRPPRLPRPRPRPHDGPRP, the “shrunken log2 fold change” value was determined as 0.0999. Regarding RRIRRRPPRLPRPRPRPNTLPRP, the “shrunken log2 fold change” value is -0.283.

Take RRIRFRPPRLPRPRPRPNEVPRP: the “shrunken log2 fold change” value was -0.0205.

On to RRIRNRPPRLPRPRPRPDSLPRP, for which the “shrunken log2 fold change” value came out at 0.0321. As to RRIRYRPPRLPRPRPRPHAHPRP, the “shrunken log2 fold change” value is -0.479. With RRIRCRPPRLPRPRPRPNPPPRP the figure was 0.557; with RRIRDRPPRLPRPRPRPPMRPRP, 0.759.

Regarding RRIRKRPPRLPRPRPRPVADPRP, the “shrunken log2 fold change” value was found to be 0.14.

Regarding RRIRNRPPRLPRPRPRPMSEPRP, the “shrunken log2 fold change” value was -0.0254. For RRIRARPPRLPRPRPRPIGLPRP the value was 0.076. Take RRIRIRPPRLPRPRPRPPYEPRP: the “shrunken log2 fold change” value is -0.315. For RRIRARPPRLPRPRPRPCKYPRP the value was -0.201. For RRIRIRPPRLPRPRPRPYVLPRP the value was -0.588; for RRIRLRPPRLPRPRPRPCQSPRP, -0.0018; for RRIRKRPPRLPRPRPRPHRLPRP, 0.164. With RRIRNRPPRLPRPRPRPFAHPRP the figure was -0.00369; with RRIRSRPPRLPRPRPRPDSCPRP, -0.0234. As to RRIRHRPPRLPRPRPRPMQPPRP, the “shrunken log2 fold change” value came out at 0.172. With RRIRNRPPRLPRPRPRPYWMPRP, the “shrunken log2 fold change” value was -0.26. With RRIRLRPPRLPRPRPRPIMHPRP the figure was 0.0628; with RRIRQRPPRLPRPRPRPMRYPRP, 0.0851; with RRIRPRPPRLPRPRPRPDYYPRP, -0.346.

RRIRSRPPRLPRPRPRPELSPRP: the “shrunken log2 fold change” value is 0.963. With RRIRSRPPRLPRPRPRPHLCPRP, the “shrunken log2 fold change” value is -0.121.

As to RRIRERPPRLPRPRPRPWHTPRP, the “shrunken log2 fold change” value is -0.16. For RRIRPRPPRLPRPRPRPLEYPRP, the “shrunken log2 fold change” value was -0.56.

Consider RRIRYRPPRLPRPRPRPNDSPRP, for which the “shrunken log2 fold change” value is -0.349. With RRIRIRPPRLPRPRPRPCTEPRP the figure was -0.0706. With RRIRPRPPRLPRPRPRPKQWPRP the figure was -0.22; with RRIRGRPPRLPRPRPRPHPMPRP, 0.497. For RRIRQRPPRLPRPRPRPKYYPRP the value was -0.746; for RRIRQRPPRLPRPRPRPVLHPRP, -0.149; for RRIRWRPPRLPRPRPRPCMRPRP, 0.506. As for RRIRKRPPRLPRPRPRPPQPPRP, the “shrunken log2 fold change” value turned out to be 0.856. For RRIRQRPPRLPRPRPRPKLWPRP the value was -0.0821; for RRIRGRPPRLPRPRPRPGPPPRP, 0.97. RRIRKRPPRLPRPRPRPQVVPRP: the “shrunken log2 fold change” value is -0.0176. With RRIRWRPPRLPRPRPRPSEYPRP the figure was -0.221; with RRIRERPPRLPRPRPRPWKAPRP, 0.0158; with RRIRQRPPRLPRPRPRPLPRPRP, 0.724. For RRIRARPPRLPRPRPRPMDQPRP the value was -0.194; for RRIRQRPPRLPRPRPRPMGRPRP, -0.00151; for RRIRCRPPRLPRPRPRPLVRPRP, 0.0749.

Regarding RRIRKRPPRLPRPRPRPHTHPRP, the “shrunken log2 fold change” value is -0.0896. With RRIRHRPPRLPRPRPRPCQYPRP, the “shrunken log2 fold change” value is 0.0163. For RRIRGRPPRLPRPRPRPYLAPRP the value was 0.398. With RRIRSRPPRLPRPRPRPWRDPRP the figure was 0.0985. For RRIRCRPPRLPRPRPRPNRQPRP the value was -0.216; for RRIRFRPPRLPRPRPRPDVRPRP, 0.0165. As to RRIRRRPPRLPRPRPRPDIFPRP, the “shrunken log2 fold change” value amounted to 0.0756. For RRIRIRPPRLPRPRPRPSAIPRP the value was -0.0599; for RRIRWRPPRLPRPRPRPQSRPRP, 0.299. For RRIRGRPPRLPRPRPRPNVGPRP, the “shrunken log2 fold change” value is 0.125. With RRIRERPPRLPRPRPRPSPCPRP the figure was -0.229. With RRIRCRPPRLPRPRPRPQRWPRP the figure was 0.294; with RRIRCRPPRLPRPRPRPQDPPRP, -0.0952; with RRIRERPPRLPRPRPRPFKLPRP, -0.42. With RRIRERPPRLPRPRPRPNEKPRP the figure was -0.0183; with RRIRQRPPRLPRPRPRPSDFPRP, -0.128; with RRIRCRPPRLPRPRPRPWWPPRP, 0.0266. As for RRIRPRPPRLPRPRPRPLMVPRP, the “shrunken log2 fold change” value is -0.0973. With RRIRSRPPRLPRPRPRPHHFPRP, the “shrunken log2 fold change” value was determined as 0.0761. With RRIRKRPPRLPRPRPRPANLPRP the figure was 0.299; with RRIRIRPPRLPRPRPRPNNFPRP, -0.388; with RRIRTRPPRLPRPRPRPCPFPRP, -0.484. With RRIRMRPPRLPRPRPRPHCVPRP the figure was 0.0437. With RRIRRRPPRLPRPRPRPRPYPRP the figure was 1.17; with RRIRIRPPRLPRPRPRPWQMPRP, 0.0562; with RRIRQRPPRLPRPRPRPWVQPRP, -0.0131. Consider RRIRRRPPRLPRPRPRPWMCPRP, for which the “shrunken log2 fold change” value came out at 0.214. For RRIRERPPRLPRPRPRPHNSPRP the value was -0.156; for RRIRARPPRLPRPRPRPPSWPRP, 0.736; for RRIRQRPPRLPRPRPRPSNWPRP, -0.227. With RRIRNRPPRLPRPRPRPQIAPRP the figure was -0.155; with RRIRIRPPRLPRPRPRPRQPPRP, -0.0694; with RRIRTRPPRLPRPRPRPMQEPRP, -0.0701. With RRIRCRPPRLPRPRPRPTYLPRP the figure was -0.292; with RRIRCRPPRLPRPRPRPKESPRP, 0.0858. Take RRIRSRPPRLPRPRPRPNHYPRP: the “shrunken log2 fold change” value is -0.789. For RRIRCRPPRLPRPRPRPTLCPRP the value was -0.0107; for RRIRGRPPRLPRPRPRPGLFPRP, 1.01.

In the case of RRIRIRPPRLPRPRPRPEEIPRP, the “shrunken log2 fold change” value was -0.0261. With RRIRIRPPRLPRPRPRPIDYPRP the figure was -1.06.

With RRIRVRPPRLPRPRPRPGKNPRP, the “shrunken log2 fold change” value was -0.22. On to RRIRVRPPRLPRPRPRPKQLPRP, for which the “shrunken log2 fold change” value is 0.0267. With RRIRGRPPRLPRPRPRPKWAPRP, the “shrunken log2 fold change” value came out at 0.155. For RRIRERPPRLPRPRPRPHREPRP the value was -0.0302; for RRIRCRPPRLPRPRPRPYWYPRP, -0.553; for RRIRTRPPRLPRPRPRPYNEPRP, -1.35.

For the sequence RRIRCRPPRLPRPRPRPMIMPRP, the “shrunken log2 fold change” value is -0.854. Regarding RRIRHRPPRLPRPRPRPIHWPRP, the “shrunken log2 fold change” value is -0.0298. For RRIRYRPPRLPRPRPRPMVMPRP the value was -0.0337. With RRIRPRPPRLPRPRPRPMDCPRP the figure was -0.00833; with RRIRSRPPRLPRPRPRPGGTPRP, 0.247; with RRIRQRPPRLPRPRPRPTQRPRP, 0.548. With RRIRIRPPRLPRPRPRPHYTPRP the figure was -0.591; with RRIRNRPPRLPRPRPRPDIQPRP, -0.0597; with RRIRFRPPRLPRPRPRPKCGPRP, 0.0559.

For RRIRMRPPRLPRPRPRPLDYPRP, the “shrunken log2 fold change” value is -0.0259. Consider RRIRHRPPRLPRPRPRPHIHPRP, for which the “shrunken log2 fold change” value is -0.328. With RRIRWRPPRLPRPRPRPALDPRP the figure was 0.553. With RRIRYRPPRLPRPRPRPVRKPRP the figure was 0.195; with RRIRKRPPRLPRPRPRPKHKPRP, 0.362.
